Among the targets are Abl(Y253F) (h) (human) (UniProt P00519); CHK2 (h) (human) (UniProt O96017); CK1δ (h) (human) (UniProt P48730); EphB1 (h) (human) (UniProt P54762); Hck (h) (human) (UniProt P08631); LOK (h) (human) (UniProt O94804); PKA (h) (human) (UniProt P17612); PKBβ (h) (human) (UniProt P31751); Rsk1 (h) (human) (UniProt Q15418).
Common to all, as to assay: cell-based or functional assay
For a further assay, the target named is T1, BrSK2 (h) (human) (UniProt Q8IWQ3).
T1 sequence (looked up): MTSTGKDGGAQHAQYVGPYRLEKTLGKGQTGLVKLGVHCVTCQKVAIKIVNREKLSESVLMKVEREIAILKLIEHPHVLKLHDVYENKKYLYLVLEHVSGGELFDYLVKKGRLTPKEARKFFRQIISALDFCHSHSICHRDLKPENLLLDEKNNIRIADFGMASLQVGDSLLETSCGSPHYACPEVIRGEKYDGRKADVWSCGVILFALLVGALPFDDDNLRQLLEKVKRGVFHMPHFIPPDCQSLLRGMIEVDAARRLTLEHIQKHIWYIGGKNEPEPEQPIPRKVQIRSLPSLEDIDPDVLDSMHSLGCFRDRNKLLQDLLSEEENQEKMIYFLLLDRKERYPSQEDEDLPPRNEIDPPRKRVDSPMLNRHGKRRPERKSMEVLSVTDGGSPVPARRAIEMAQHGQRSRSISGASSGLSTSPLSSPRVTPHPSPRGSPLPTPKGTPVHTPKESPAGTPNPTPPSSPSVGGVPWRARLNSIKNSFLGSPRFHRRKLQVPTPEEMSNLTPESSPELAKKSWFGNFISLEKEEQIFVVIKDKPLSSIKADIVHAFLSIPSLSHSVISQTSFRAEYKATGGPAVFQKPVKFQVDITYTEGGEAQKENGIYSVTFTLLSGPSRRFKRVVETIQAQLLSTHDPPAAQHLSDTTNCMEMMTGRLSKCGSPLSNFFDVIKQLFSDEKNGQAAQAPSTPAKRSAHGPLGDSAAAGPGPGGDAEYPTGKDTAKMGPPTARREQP

A further assay addresses T2, GRK7 (h) (human) (UniProt Q8WTQ7).
T2 sequence (looked up): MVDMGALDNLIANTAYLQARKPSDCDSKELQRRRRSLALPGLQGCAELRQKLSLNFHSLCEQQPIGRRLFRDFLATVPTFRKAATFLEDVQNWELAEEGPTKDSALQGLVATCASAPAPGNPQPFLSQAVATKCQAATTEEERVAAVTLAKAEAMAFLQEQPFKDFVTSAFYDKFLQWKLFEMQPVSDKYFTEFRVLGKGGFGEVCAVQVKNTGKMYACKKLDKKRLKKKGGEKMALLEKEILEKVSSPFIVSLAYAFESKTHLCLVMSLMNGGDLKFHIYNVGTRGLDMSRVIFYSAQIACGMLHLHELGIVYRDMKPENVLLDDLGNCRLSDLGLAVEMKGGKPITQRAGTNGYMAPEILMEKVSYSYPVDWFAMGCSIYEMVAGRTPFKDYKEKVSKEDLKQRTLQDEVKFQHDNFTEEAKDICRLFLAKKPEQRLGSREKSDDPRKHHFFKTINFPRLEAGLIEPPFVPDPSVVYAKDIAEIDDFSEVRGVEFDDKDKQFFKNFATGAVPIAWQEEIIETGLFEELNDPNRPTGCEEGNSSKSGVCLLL

In a further assay the target is T3, Ret (h) (human) (UniProt P07949).
T3 sequence (looked up): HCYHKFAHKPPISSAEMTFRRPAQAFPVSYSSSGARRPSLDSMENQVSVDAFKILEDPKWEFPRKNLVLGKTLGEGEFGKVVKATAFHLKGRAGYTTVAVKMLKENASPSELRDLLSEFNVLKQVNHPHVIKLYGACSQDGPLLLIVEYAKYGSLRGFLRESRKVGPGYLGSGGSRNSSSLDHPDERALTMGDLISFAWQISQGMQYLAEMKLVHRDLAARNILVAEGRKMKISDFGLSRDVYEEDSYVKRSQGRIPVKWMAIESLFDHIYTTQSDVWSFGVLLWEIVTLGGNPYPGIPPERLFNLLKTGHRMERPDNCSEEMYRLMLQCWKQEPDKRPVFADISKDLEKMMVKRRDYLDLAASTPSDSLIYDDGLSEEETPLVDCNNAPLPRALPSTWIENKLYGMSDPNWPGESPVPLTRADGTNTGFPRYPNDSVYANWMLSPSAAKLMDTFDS

The target of another assay is T4, TBK1 (h) (human) (UniProt Q9UHD2).
T4 sequence (looked up): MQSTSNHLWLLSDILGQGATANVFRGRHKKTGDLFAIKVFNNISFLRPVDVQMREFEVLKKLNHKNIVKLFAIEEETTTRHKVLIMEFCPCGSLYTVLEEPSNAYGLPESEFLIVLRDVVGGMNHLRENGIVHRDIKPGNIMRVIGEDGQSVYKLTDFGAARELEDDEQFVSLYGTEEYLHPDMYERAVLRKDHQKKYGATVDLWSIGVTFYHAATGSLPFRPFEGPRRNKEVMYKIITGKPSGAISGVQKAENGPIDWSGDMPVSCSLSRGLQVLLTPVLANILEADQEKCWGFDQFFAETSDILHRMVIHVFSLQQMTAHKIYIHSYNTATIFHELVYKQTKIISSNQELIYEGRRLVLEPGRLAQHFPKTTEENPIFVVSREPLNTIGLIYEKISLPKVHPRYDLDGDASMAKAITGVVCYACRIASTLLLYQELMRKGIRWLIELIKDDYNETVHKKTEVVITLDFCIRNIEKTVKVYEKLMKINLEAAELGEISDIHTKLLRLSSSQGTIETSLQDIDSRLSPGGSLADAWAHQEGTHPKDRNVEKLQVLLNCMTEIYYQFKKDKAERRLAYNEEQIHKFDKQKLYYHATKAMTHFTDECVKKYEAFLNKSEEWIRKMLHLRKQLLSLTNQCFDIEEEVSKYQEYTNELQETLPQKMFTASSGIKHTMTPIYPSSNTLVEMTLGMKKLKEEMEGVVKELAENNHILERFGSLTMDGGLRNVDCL

Chain of CHK2 (h) (human) (O96017 5-543 limits assumed): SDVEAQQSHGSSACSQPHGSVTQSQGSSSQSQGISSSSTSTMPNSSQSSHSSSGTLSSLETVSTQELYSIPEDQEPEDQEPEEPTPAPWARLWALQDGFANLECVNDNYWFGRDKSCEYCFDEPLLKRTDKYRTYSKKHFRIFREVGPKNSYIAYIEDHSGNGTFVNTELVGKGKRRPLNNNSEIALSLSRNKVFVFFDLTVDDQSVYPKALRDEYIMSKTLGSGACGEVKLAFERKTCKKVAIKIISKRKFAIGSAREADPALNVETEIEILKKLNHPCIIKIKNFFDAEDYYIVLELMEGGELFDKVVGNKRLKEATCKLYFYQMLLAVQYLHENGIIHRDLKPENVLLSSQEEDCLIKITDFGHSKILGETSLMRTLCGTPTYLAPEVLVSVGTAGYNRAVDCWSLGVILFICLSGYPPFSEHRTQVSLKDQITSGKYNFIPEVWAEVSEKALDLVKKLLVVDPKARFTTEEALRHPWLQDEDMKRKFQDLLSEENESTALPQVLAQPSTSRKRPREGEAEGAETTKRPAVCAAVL
Chain of Rsk1 (h) (human) (Q15418 whole entry): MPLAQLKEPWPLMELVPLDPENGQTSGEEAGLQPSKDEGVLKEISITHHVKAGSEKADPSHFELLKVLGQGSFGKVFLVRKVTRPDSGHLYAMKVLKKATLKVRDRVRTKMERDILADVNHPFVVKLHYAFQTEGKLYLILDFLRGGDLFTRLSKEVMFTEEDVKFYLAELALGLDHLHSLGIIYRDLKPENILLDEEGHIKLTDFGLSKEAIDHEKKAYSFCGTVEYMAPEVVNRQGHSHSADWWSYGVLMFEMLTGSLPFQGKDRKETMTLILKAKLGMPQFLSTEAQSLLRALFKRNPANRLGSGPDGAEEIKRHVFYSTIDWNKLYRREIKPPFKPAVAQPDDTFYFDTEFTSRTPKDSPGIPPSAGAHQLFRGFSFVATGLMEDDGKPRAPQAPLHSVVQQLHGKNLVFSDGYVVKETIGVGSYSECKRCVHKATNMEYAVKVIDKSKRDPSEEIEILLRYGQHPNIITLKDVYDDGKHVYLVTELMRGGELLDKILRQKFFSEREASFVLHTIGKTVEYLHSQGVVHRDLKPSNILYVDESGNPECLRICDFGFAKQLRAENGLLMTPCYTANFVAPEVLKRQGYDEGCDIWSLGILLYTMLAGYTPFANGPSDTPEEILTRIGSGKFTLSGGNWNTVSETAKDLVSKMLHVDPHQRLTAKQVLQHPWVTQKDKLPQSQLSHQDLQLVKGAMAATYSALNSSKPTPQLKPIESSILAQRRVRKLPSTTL
Chain of PKBβ (h) (human) (P31751 whole entry): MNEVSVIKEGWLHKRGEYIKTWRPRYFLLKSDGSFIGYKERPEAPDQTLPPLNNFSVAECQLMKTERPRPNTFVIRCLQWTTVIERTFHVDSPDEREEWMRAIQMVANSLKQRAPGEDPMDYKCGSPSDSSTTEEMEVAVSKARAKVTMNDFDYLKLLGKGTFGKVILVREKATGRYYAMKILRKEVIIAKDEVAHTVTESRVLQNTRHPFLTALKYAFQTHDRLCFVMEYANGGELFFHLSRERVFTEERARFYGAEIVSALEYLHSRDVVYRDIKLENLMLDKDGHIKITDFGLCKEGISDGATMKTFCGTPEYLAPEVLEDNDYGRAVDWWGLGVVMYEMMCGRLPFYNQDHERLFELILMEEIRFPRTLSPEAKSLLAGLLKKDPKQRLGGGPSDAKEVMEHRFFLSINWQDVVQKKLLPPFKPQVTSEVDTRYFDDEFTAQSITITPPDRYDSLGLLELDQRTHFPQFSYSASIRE
Chain of Abl(Y253F) (h) (human) (P00519 27-1130 Y253F limits assumed): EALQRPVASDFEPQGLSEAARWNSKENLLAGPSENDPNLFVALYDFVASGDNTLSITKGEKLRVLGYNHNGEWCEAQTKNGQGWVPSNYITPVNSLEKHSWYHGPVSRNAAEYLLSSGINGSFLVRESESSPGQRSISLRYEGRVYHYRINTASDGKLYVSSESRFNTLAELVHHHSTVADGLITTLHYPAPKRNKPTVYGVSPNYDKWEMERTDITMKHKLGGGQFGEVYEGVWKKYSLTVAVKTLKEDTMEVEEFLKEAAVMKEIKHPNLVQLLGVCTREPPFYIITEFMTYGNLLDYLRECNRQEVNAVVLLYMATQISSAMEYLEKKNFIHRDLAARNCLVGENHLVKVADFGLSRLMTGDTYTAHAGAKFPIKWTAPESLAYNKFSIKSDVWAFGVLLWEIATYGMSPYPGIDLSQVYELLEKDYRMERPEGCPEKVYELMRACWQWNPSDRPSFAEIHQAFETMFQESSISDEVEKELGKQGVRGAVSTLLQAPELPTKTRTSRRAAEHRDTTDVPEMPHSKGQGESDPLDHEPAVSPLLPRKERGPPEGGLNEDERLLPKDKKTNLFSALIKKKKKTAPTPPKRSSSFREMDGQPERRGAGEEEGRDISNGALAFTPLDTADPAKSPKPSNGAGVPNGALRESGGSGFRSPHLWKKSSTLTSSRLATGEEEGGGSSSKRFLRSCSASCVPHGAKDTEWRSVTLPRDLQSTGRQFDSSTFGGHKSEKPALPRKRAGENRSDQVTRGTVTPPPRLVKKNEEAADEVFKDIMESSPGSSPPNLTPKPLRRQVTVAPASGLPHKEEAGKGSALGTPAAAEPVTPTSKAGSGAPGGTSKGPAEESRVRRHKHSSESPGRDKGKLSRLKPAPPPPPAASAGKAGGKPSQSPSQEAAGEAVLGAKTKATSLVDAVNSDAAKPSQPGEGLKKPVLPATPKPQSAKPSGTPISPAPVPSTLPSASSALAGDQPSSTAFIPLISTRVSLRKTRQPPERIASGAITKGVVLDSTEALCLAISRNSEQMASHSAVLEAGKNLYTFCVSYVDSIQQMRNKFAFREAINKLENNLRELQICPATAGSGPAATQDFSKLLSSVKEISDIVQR
Chain of EphB1 (h) (human) (P54762 564-984 limits assumed): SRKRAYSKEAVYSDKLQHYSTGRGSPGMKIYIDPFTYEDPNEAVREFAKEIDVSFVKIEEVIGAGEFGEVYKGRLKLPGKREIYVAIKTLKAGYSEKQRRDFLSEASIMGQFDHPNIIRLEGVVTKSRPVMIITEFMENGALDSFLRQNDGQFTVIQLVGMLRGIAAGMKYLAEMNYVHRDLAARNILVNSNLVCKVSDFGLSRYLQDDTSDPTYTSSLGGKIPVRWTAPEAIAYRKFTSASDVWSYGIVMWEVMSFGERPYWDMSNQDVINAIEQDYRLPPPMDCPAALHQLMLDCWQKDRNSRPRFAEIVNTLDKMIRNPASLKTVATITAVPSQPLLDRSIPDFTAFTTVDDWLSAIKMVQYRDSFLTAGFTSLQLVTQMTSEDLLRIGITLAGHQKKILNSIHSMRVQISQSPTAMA

As to MMI-0300 (peptide), the % activity at 100 µM with Abl(Y253F) (h) (human) stood at 86%; with BrSK2 (h) (human) it was 83%; with CHK2 (h) (human), 66%; with CK1δ (h) (human) it was 92%; with EphB1 (h) (human), 44%; in the assay with GRK7 (h) (human), 122%. The % activity at 100 µM in the assay with Hck (h) (human) was determined as 72%; with LOK (h) (human), 37%; with PKA (h) (human), 119%; with PKBβ (h) (human), 84%; in the assay with Ret (h) (human) it was 140%; in the assay with Rsk1 (h) (human), 46%. Besides, the % activity at 100 µM in the assay with TBK1 (h) (human) came out at 37%.
